Experiment: protease stability score; higher = more stable; yeast display proteolysis, trypsin and chymotrypsin;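 note: log10 excess protease needed over predicted unfolded state with 0 meaning unfolded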

Row | Sequence | protease stability score
1 | DEKRYKELADKAFKYIVNGNEEQAIKMLKPNVRYEYVDKEMKGEEAAKEIVQLMQKVGAKVETQEKEVHGDTMRAVFQYHDGDTTVQTTAEVVYKGDKVEKVRVEISEEVKKIVERG | -0.265
2 | DEKRYKELFETVFKMVINGDEEDVKKIINPNGKYQYGDKEFEGPEVAHELVRVVKEMGAEVKETRYEVNGDTARADFKYINGDQEVTTTAEAVYKGDKMEEARVHISEEVKKVLHQG | -0.143
3 | DEKRYTEIAEKVFKYARNGNEEEMRKDGMPDLKYKYIDKEYEGEDAMRFVVELVKKIGAEDRQEKQEVKGNTAEAVFVYHNGDETVTTKAQVHYEGDKVKEVRVELTDEVKKVIKKG | 0.135
4 | DEKTAASQFFRDLRHALRQGDETRIMELADENVEFQIGDKRWHGRESAMELARHVHNRADTVELRIEDLKIDNGQMNADVLITFNHNGRNETQRVNVRARIHNGHVVLVEVHQK | 1.62
5 | DEKTAQDTAKEIVKYWEQGDFEKLNKNADKNVRIRYGDKDYSGRDNFQELQKKFREHVDHVEVHSVDVEGDKIRVVIMFVVNGKHMVMEFVVDYHNGHLKSVSVDARNPDQKKRADK | 0.46
6 | DEKTERDQARKLIHILEEGDEEKMANLMDENAHIQVGDTTYSGREDVRRFMQSWSERVDRFSVHSITAHNGKIDIDVEFVVNGRKVQMDLRFHVENGRIKTDKFQFRDEDKFKDMQS | 0.295
7 | DEKTKAKQLADTLKRLAESGDFVRIAQLFDENARLNYGDKTVHGREQAEDQAKKIHDQIDHMELELKSVSVNENSVQISMEVVWHHNGNHHRFEVVVRIDVDENKNRARNADYQ | 0.921
8 | DEKTLKELADHLIRAIETGNEHQFQKMADPNVKAQYGDSKVRGREDLAEYFKTLVDRADHIQFDHWDAQGNKVTMHFVLRVNGVDVRIVVFIHVTNGKIKHVRVHVTDPQEFRRMQG | 0.515
9 | DEKTVKEVVDKWIKALENNDEEKLQKMLKPNGEAHYADTTYKGKDQIVKYVVEFMRRGVELQVKEQEVKGGRAEYQVDATLGGDTVTLRVVIYVKDGVVDKVEFRDDEKVQKMMKKG | 0.105
10 | DEKVHKIFEHYMTAVNRNNPDRAMRQVDPNAHVEVGDRQISGRENLRETVEKLNKHARINYRDFDAELHGDKVNVDLDIRMEYNGKPYSDHVIIIFRAQGDKIKHMTNDIDPDVEHHFEQ | 0.081
11 | DEKVKELFKRLLRALHTGDEEQARRLVDPNARIQVGDQRYHGMDEALRQMLHNMQDIEVSQRYIEVDVSGDRVHYRAEVEKTHNGKPEREQYSATVHAHNGKVVQVEMHTDK | 0.069
12 | DEKVLKALHDVFRAQEHGDERRAMRNLDPNVKIDVGDEQYHGRESWARRIVQERRDMKVEYHKIDFDDRGDKAKITARYEFTENGDPRHVTIDMEAKATNGKVTTMEQRDDG | -0.103
13 | DEKVQDLVQKFVKWLAQGDHKKLADLLDPNARLHIGEFNVHGREQLREAVTRLQTRMHLSVNRVDASASNGKIKASAKFTVKHNGQPDKKHLNFSAVARGEKVKHMEASDDQ | -0.287
14 | DENAERVLREIVKALEQGDPDRWKQNVDPNVKFRVGDKDVHGREEIVKTLSSLHDQIRFHVKFEHMDNQGDKIRADARVHQNVDGRPLSSSVVVRLTVHNGRVQEMRMNMDEHYVRDEQK | 0.068
15 | DENAQKLAREFMHAVREGNPEEIKKQVDPNAKMVVGDKEITGREEMSRQRERELREIEIDYRSVRVDVSGDKAKLDIKFERNDNGKPQQQQQTMTFVHQGDKIKHLVIKQHS | -0.373
16 | DENAVRVVKELWKALNHGNPDRVQQLADKDARVQVGDKDVHGREKMAKLVDTLKKEIRMDIKVHSISASNGRAKIDFKADEENNGKPQTYEATANVTIHNGKVVSMRVNKDQ | -0.428
17 | DENDAKELRHFIEVMVRGDPSKLMQLADKDASFHIGEKQVHGREQISSEAEQRNREIKYEIKDLKVTVHGDKARVEAEMVKNHNGKPEHYRYVVTASLRNGKIKEVTVNKRQ | 0.875
18 | DENDTARKIIKTLLDIMREGDEDKLRDQMDPNVRADVGDKTVHGREHAAKFLAHIVKRADHISITLKSLHNHNGRLRMQAEVRIVHNGRTERVTLEMVFRDHNGKLLIERMKYG | 2.51
19 | DENDVKRVLDKLKDNNWEDLVKLMDKDARVEIGDHTIHGRENVHQWMSTIEKQVDHFQIDTMTVKGDTLDANVRMVVNGRKIVFRLKVSLKNGRITRIRFQATDEEQHQQIRQMLR | 1.29
20 | DENELELYKEVVEAENTGDPDEMKELVDPNVNVQVGDTTLHGMSELVKDAKRRRKQMRVDIKVTSMKAHNGRLEIRLEVVFEVNGRPTSDTITVTVHAHNGKVKEFNYHMDPDREKRQRS | 1.03
21 | DENELLKTFMDIFRRAIKTGDEKLLRTMMDKDVKARVGDKDVHGREEADKEFKKIWDHADHVDIKVKEVTINGDKAHVTMDAKFVVDGKSQKVNIHVKAEVKNGRLKAKHITMG | 2.03
22 | DENEMVQLARKLARVLETNDSDKMREMIPPDASIEIGDRRLHGRESVEHLMKDMHKRIDHLTVDSVNVDNGRVHISARAKHNGRTRRVQFYALIHNGRIHVISFRTK | 1.34
23 | DENENEEFARKFLENLRTGDPDKVMELVDPNAHVTIGDKEIKGRDQVKRWVEEHKRRADHLDVRDMSVDGEKITARIVVNINGENKYQKVEISIHNGHMTHMSVHDE | 1.12
24 | DENETAKDILKELVDILKNGDEDSFARMFDENARITVGDKTYTGRDEVRKYASQIHRRVDHIDVKLKSVTTNNGRIEVSARFVFQVDGKEDDRIFRLVVRKKGDKWVIERQSLE | 1.64
25 | DENHKVRELVDRFKEAYDSNDPDQYQNQFDKDATVTVGDKVFHGDEQAKQMAEDIMRNVDSFSISLKRVRVRGDKVRVSFKVVNNRNGRHKTIHVTAVFVFDNGRLRAKSWHFQ | 0.73

Row | Sequence | protease stability score
26 | DENHLKEVAEEYNKVLNNGDPDKHVEQVDKDVDVKVGDKTYHGREDDKKWMEHFVERVDHLEVKRVEVRGDKVRIDMVVNVNGDNVKMQVNINLHNGRVQEVSVNPDQLEKFKQ | 0.22
27 | DENIKRTMSDFLHAVRDGDEDKLFKLADPNARMKYGDKDVHGMEEIVHQIKRLRRDASVDIHIKRVEVDGNRVDIKLEVVVNVNGRPQRYRFEIKVRFHNGRINALENNIDEDQLRKIES | 1.21
28 | DENKEAKHFAQDINDAFQHNDPDHLNRLFDPNARMQIGDKEIRGKEQFKEENRRMVDQVDKVEVHVKEISVHNGRVEFVLIIRENHNGRNTQTSVEVNAEKQNGQIRIRQETEQ | -0.307
29 | DENKENEQFLRNYSKQLKDGNEEQLKRNFDPDAKVRYGDKDVSGREQIQKRIADEARKVDHYEITVKRVEKRGDHVRVEFDVRRHVNGKEESMDVVVIFVKHNGRMVISTVTID | 0.036
30 | DENKKAEKVARDYIKNAQTNNSESLKKLADPNVEVVIGDTTYTGTKDFVKFVQEIVRQADHISLNVRSVEVQGDKADVVAEVRVDFNGNQRRQDIRFHAQLQGDKVKLKMIQYK | 1.06
31 | DENKLKEVANRIVSAVRTNDPDHLANLFDKDDKFQIGEKQFHGHEELRKALEEIHQEVDRLHVKTYELHNGVVKIHVDMKYNGHEIKVVFYFTVHNGRLKYMEVKSQ | -0.346
32 | DENLERQASRLISALLDNDPDLAVELVDENVKVQIGDKTVHGRETVHRHIETLVHHMRMDLDRFHVEVSGEKAKITLDVRFKINGKPIKDTLDVFFTAHNGKIKSVHFRMPEEHKKQVDR | 0.899
33 | DENLLDHMKRLFESGDWDDFSKNADKHVRVHIGEFNYRGREQARTVMNKLQKSADHVEIKRISVHNGQLQMDVTVVVNGETITVRIAAHVSNGRFVELRMSATDSKDKKALQKVQS | 1.03
34 | DENLNTLMTQFMRAIQRGDEKRAKQLADPNAEIKYGDRSIHGMDQHADTIRKIRRKMRVDVTEVSHTTDGEQVNVEVTAIFNHNGEPKKRKFQFSATISNGRIKQVEVQDSQ | 0.654
35 | DENQVDQLKELMDALQNNDERKANDLADKNARIRIGDKDVSGRSDMNRMVRELHERIRFTIRTVELHHQGDKVIAKVKVEMDHNGKPNDVTQNAEAKYHNGHLQRLFFDTRS | -0.433
36 | DENREASTFMEQLQRNLRDGDHEEVVRMIDENARLEVGDKRIEGDHNVAHELMNQARRVDHFKMNITHLEVSNGRVKVVFIAKYEVNGRTEVNVYEQVLEIENGRLSLVSRRRK | 0.545
37 | DENRLRHLAHHMVEVLKTGNEEEIERLMDENVRLTYGDKEVHGRENVRQYIRQLREEIDHFSVQEIDVSGDKVTIVFTFIVNGQRVRAVLKVRFHNGRIVEATIEYTDEDQKRRADS | 1.35
38 | DENTEAQRFADNFNKLMNTGDEDTLNKLFDENAKVEVGDHRLHGREKLTKLAETNKQRFDHVKVDVDDIKVDNGTVQMRAVVIVYHNGRHHSVELEVVAQNHNGHARVKRMRVG | 0.553
39 | DENTQKQIAKKVVDVIRNGDPKQLHDLFDPNARLNIGDRTYTGSKEFQKHAETLRRNVDHIQVKSIDVQGEHIHINMVLNVNGKQYNANFRVDVHNGKAKQMSVEYRDKEEYKTLKR | 0.362
40 | DENVLKRVKELLRTNNWEELANKADKDVEMRVGDKEWRGREQVVRAHKKLYDRVDHFKIDSMHWRNGHLVVNFVAEVNGKRAVMVLEMKVHNGRIKRITLEARDKDDEEFIEEALR | 1.47
41 | DENVRRLVEHLIRAVQSNDPDKVVENLDPNASIHVGEKRYHGEDRAKDMYETEKNQMRVQVRLTQLHVQGNHAKLRETVLIDHNGRPVNVSLDMSLIAHNGRVHEIHETVPEENRKERKG | -0.029
42 | DENVVKEVEKLLEWIQSGNEQHIQEMMDKHARAQVGDQKVKGRKQVSTQWRRLAEDIDIHARVKDMKNDGNRAILEIHQVRHHNGDPDEFHANQIVTMHGDRIKHLELQNTK | -0.283
43 | DENVVKRVHDALQTNDWQQLADLFDKDARVHVGEFQLHGHEEVQKFVDLQRKQIDHMEVRSIEIDGERAEAEFVIRVDGRKREAEITIRANNGKAKEMKIQFTDKDFERKMREKME | 0.836
44 | DENVVKTAKNWFKAVQTGDTQEIHKNADPNARFQIGDKEYEGMEEYDKEQKERFEHMRVDYKDVTIRADGEHLHVKVKAKVNVNGQPHDVTFTIEARVDNGKFKEIVVKFDPDQQDRVEK | 0.338
45 | DEQAKEHIEEWMKAVKTGDEHTLREMADENAHFEIGDKTLHGMREFVKEQAERFRNIRVSYKRIDIRVQGNKVTVVVRFVVQHDGRPDERTVTFVFTFHNGQIENMQVKDEQ | 1.17
46 | DEQAKEVAEHWWEAVKKNDPTQAKENADKDVRARVGDQEIHGREDLATWLDQQKREMRIDLQIDSVSVSNGTLDIKAKMQVEDNGTPEHNTVEASMVVHNGRVKQFHIRVTK | 0.96
47 | DEQAMSVAEELISALNTGNEDQVDRLMDPNAHLQVGDKRLHGREEVRRHVKTLKDQARFDMKVDSLRVQGEKVRLDATYTFEVNGRPREDRVIIDMTLTNGTVKRIRFNFDPDDWRKMEG | 1.04
48 | DEQAQKRAKNFMTAIQSNDPQKVKENVDKDVNIRIGDRIVHGREQLEDYYSHWNTKMRQRVSFKRMDVQGNHVDLKAEASNTNNGQPNHFEVRITITFHNGKIEKANLEFQP | -0.422
49 | DEQATEVIERFLTALQRNDPHELKKQLDEDVRMNVGDKTLHGRDSFEKTWHEKLRTQRIELKDYRIEVQPGRVKAHVHYVVEHNGRPRTKRHTFSAEVHNGHVKHFHQQDEQ | -0.462
50 | DEQAVNEVEKMWRAIHDGDPERINKMFDPNAKFHIGNKELHGRENFATTMVKEQREIRRRVDIIRMSAHNGRITVRYRVDAEVNGEPYSNDITVSATVHNGKATDFTVHVDEDYLRKFNS | -0.004

— the NTF2 design screens of Basanta et al. (2020)
